Test results taken from patent WO2008074868A1 (dated 2008).
Numbering of substitutions follows the chain as printed.

B1: 4B1 (VHH)
VHH: EVQLVESGGGLVQPGGSLRLSCVAAGFTLDYYAIGWFRQAPGKEREGVSCITSDGRTYYADSVKGRFTISRDMAKKMVYLQMNSLKPEDTAVYYCAAGACMGGSGYEADFGSWGQGTQVTVSS
notes: Tested as periplasmic extract; also called 4Bl
B2: 4B10 (VHH)
VHH: EVQLVESGGGLVQAGDSLRLSCAASGRTFSSYAMGWFRQAPGTERQFVARITGKGDSTDYADSVRGRFTISRDNAKNTVYLQMNSLKPEDTAVYYCAADAFNSLLQAGRAEYWGQGTQVTVSS
notes: Tested as periplasmic extract; also called 4B1Θ
B3: 4C9 (VHH)
VHH: EVQLVESGGGLVQAGDSLRLSCTASERPFSTYVMGWFRRAPGKEREFVGGITWSGINAWYTDSVLGRFTISSDNAKNTVYLQMNSLKPEDTAVYYCAAASGVGRYRYELQYDYWGQGTQVTVSS
notes: Tested as periplasmic extract
B4: 4C8 (VHH)
VHH: EVQLVESGGGLVQAGDSLRLSCAASGRTYTPYVMGWFRRAPGKEREFVGAVSWSGTNTWYTDSVKGRFTISRDNAKNTVYLQMNSLKPEDTAVYYCAAGDGVGIYRYEHQYDYWGQGTQVTVSS
notes: Tested as periplasmic extract
B5: 4A6 (VHH)
VHH: B1 VHH with V23A, A25S, G26P, I51S, D54H, R56K, Y59H, M73N, K76N, M77T
notes: Tested as periplasmic extract; also called 4Aό
B6: 4C4 (VHH)
VHH: EVQLVESGGGLVQAGDSLRLSCAASGRPFMSYVMGWFRRAPGKEREFVGGINWGSGNTWYTDSVLGRFTISRDNAKNTVYLQMNSLKPEDTAVYYCATAAGVGYYRYERQYDYWGQGTQVTVSS
notes: Tested as periplasmic extract
B7: 4C5 (VHH)
VHH: B6 VHH with M30S, S31A, G54N, G56A, R72K, T98A, A100G
notes: Tested as periplasmic extract; also called 4CS
B8: 4B8 (VHH)
VHH: EVQLVESGGGLVQAGGSLRLSCAASGGTYSGNAMAWFRQAPGKEREFVAGIDWSSENTRYIDSVKGRFTISRDNAKNTMYLQMNSLKPEDTAVYYCAAGTSWGALASRLEAAYSSWGQGTQVTVSS
notes: Tested as periplasmic extract
B9: 4B5 (VHH)
VHH: B8 VHH with G16D, G27R, G31R, N77S
notes: Tested as periplasmic extract
B10: 4B6 (VHH)
VHH: B8 VHH with E1K, A14V, A23V, G27R, S30G, I61T, A111N, S115A
notes: Tested as periplasmic extract
B11: 4C3 (VHH)
VHH: EVQLVESGGGLVQAGGSLRLSCAASGRTFSSYAMAWFRQAPGEEREFVATISVSGGYTYYADSVKGRFTISRDNAKNTVYLQMNTLKPEDTAVYYCAAGDSSSWLEHMYDYWGQGTQVTVSS
notes: Tested as periplasmic extract
B12: 1D2 (VHH)
VHH: EVQLVESGGGLVQPGGSLRLSCAASGFTLDYYAIGWFRRAPGKEREGVSCTSSSDGSTYYADSVKGRFTISRDNAKNTVYLQMNSLKPEDTAVYYCATTFGDACTVVAGIPDQYDFGSWGQGTQVTVSS
B13: 1E7 (VHH)
VHH: EVQLVESGGGLVQAGGSLRLSCAASGRTFSNYVMGWFRQAPGKEREFVAAISWSGVTTYHYSADSVKGRFTTSRDNDRNTAHLQMNSLKPEDTAVYYCAARGRTGSDPRKGDDYDYWGQGTQVTVSS
B14: 4A9 (VHH)
VHH: EVQLVESGGGLVQAGGSLRLSCEASGFTLDYSGVGWFRQAPGKERELVSCISRGGDRAGYANSVKGRFTMSRDNAKNILYLQMNSLKPEDTAVYYCAATHSGSGCYDGAIDYWGKGTLVTVSS
B15: 4B7 (VHH)
VHH: EVQLVESGGGLVQAGGSLRLSCAASGFTFDDYAIGWFRQAPGKEREGVSCISSRDGITYYADSVKGRFTISSDNAKNTVYLQMNSLKPEDTAVYYCAADLVGSFPCPVAAYDYWGQGTQVTVSS
B16: 1D7 (VHH)
VHH: EVQLVESGGGLVQSGGSLRLSCAASGRAFNYYAMGWFRQAPGKERELVAVINWSGGTTSYADSVKGRFTISRSNAKNTVYLQMSSLKPEDTAVYYCAADSIYRTSKDYNYWGQGTQVTVSS
B17: 4D9 (VHH)
VHH: B12 VHH with A33D, R39Q
notes: Purified Nanobody

What follows are binders tested against T1, human serum albumin (human, UniProt P02768 25-609) (assay: SPR (Biacore T100) over immobilized human serum albumin, pH 7, pH 6 and pH 5).
T1 construct: also called HSA
B1: binds.
B2: binds.

Each binder was assayed against T1, human serum albumin (assay: SPR (Biacore T100), periplasmic extracts over immobilized human serum albumin).
B3: binds.
B4: binds.
B5: binds.
B6: binds.
B7: binds.
B8: binds.
B9: binds.
B10: binds.
B11: binds.

Each binder was assayed against T2, human plgR overexpressed in MDCK cells (human, UniProt P01833 19-764) (assay: immunofluorescence on MDCK cells overexpressing human plgR, 3 uM Nanobody at 4C).
T2 construct: whole, on cells; also called hpIgR; human polymeric immunoglobulin receptor
T2 sequence (P01833 19-764): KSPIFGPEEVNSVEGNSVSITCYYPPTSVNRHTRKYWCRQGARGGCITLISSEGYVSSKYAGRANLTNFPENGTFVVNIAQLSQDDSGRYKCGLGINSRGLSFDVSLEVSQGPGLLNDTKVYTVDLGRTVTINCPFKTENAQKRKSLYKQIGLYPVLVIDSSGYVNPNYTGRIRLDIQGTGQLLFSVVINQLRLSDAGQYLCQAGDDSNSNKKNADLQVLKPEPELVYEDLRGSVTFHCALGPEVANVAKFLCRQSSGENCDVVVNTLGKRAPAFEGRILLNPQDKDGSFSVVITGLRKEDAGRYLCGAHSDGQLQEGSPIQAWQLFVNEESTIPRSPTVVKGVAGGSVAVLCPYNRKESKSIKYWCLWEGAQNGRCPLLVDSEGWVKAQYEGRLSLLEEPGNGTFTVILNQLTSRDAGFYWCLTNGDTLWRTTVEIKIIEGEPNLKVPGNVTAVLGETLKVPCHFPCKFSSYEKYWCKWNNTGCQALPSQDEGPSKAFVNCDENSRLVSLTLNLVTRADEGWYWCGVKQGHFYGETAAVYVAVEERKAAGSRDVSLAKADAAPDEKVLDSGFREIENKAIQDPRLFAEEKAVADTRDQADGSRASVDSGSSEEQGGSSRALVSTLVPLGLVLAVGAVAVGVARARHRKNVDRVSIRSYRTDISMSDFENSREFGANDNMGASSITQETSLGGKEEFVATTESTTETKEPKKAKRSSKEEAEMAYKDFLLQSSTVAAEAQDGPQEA
B12: binds.
B13: binds.

Each binder was assayed against T1, human serum albumin (assay: SPR (Biacore T100), periplasmic extracts over immobilized human serum albumin, pH 7 and pH 5).
For B14, the fold difference in off rate (pH 5 against pH 7) was 0.54 fold.

What follows are binders tested against T2, human plgR overexpressed in MDCK cells (assay: immunoprecipitation from cell lysates with His-tagged Nanobody and talon beads, blot with a-hSC).
B15: binds.
B16: binds.

These binders were tested against T3, ectodomain of human plgR (R&D Systems Cat # 2717-PG) (human, UniProt P01833 19-638) (assay: competition ELISA, dilution series of purified Nanobody against IgA on immobilized plgR ectodomain).
T3 construct: extracellular domain; Immobilized at 5 ug/ml on Maxisorp plates; also called plgR ectodomain; pIgR
T3 sequence (P01833 19-638): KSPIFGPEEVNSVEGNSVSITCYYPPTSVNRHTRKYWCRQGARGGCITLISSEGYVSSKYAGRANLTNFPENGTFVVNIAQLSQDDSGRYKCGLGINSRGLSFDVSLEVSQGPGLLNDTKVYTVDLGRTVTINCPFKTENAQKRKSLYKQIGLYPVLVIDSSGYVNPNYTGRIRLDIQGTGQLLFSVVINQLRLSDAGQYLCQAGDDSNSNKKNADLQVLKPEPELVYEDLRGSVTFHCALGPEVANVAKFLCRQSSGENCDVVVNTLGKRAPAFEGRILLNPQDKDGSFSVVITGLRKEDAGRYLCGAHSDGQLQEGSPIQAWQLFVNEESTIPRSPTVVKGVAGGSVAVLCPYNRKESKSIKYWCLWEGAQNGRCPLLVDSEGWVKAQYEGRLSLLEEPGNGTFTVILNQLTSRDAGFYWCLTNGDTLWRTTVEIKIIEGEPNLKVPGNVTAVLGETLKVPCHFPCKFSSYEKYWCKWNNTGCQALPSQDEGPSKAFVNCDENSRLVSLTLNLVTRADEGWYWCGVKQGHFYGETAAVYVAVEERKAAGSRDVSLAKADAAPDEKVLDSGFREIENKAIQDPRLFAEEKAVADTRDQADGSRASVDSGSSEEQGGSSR
B16: binds.
B12: binds.
B17: binds.
B13: binds.
